According to publication PMC12386367, “Importin α3 Is Tolerant to Nuclear Localization Signal Chirality” (International Journal of Molecular Sciences, 2025):
Like-named read-outs stand apart in the source and are kept apart here. Non-standard residues stand in square brackets, D forms with d.

Columns and labels:
[1] = biological target: L-NLS-NUPR1phospho (Homo sapiens) (UniProt O60356); test: ITC; settings: cited from earlier work
[2] = biological target: L-NLS-NUPR1 (Homo sapiens) (UniProt O60356); test: ITC; settings: cited from earlier work
[3] = biological target: L-NLS-PADI (NLS2-PADI4) (Homo sapiens) (UniProt Q9UM07); test: ITC; settings: cited from earlier work
[4] = biological target: L-NLS-NUPR1L (Homo sapiens) (UniProt A6NF83); test: fluorescence; settings: cited from earlier work
[5] = biological target: L-NLS-PADI (NLS2-PADI4) (Homo sapiens) (UniProt Q9UM07); test: fluorescence; settings: cited from earlier work
[6] = biological target: L-NLS-NUPR1phospho NLS (Homo sapiens) (UniProt O60356); settings: cited from earlier work
[7] = biological target: L-NLS-NUPR1L NLS (Homo sapiens) (UniProt A6NF83); test: ITC; settings: cited from earlier work
[8] = biological target: L-NLS-PADI NLS (Homo sapiens) (UniProt Q9UM07); test: ITC; settings: cited from earlier work
[9] = biological target: L-NLS-NUPR1 NLS (Homo sapiens) (UniProt O60356); settings: cited from earlier work
[10] = biological target: L-NLS-PADI NLS (Homo sapiens) (UniProt Q9UM07); test: fluorescence; settings: cited from earlier work
[11] = biological target: L-NLS-NUPR1L (Homo sapiens) (UniProt A6NF83); test: ITC; settings: cited from earlier work
[12] = biological target: L-NLS-NUPR1 NLS (Homo sapiens) (UniProt O60356); settings: cited from earlier work; remark: listed apart in the source
[13] = biological target: L-NLS-NUPR1phospho NLS (Homo sapiens) (UniProt O60356); settings: cited from earlier work; remark: listed apart in the source
[14] = biological target: L-NLS-NUPR1L NLS (Homo sapiens) (UniProt A6NF83); test: fluorescence; settings: cited from earlier work
[15] = biological target: T1, Human importin α3 isoform (residues 1–521) (human, UniProt O00629 1-521); test: ITC; importin species (15 µM in protomer units) in the cell, D-NLS peptide (150–200 µM) in the syringe; Tris buffer 50 mM, pH 8.0; 25 °C; single set of binding sites; settings: both partners purified
T1 construct: human importin α3 (Impα3, KPNA4), residues 1-521, intact protein with the N-terminal IBB domain; The materials list Ni2+-resin, ampicillin and IPTG, so expression in E. coli is surmised; also called Impα3; KPNA4
T1 sequence (looked up): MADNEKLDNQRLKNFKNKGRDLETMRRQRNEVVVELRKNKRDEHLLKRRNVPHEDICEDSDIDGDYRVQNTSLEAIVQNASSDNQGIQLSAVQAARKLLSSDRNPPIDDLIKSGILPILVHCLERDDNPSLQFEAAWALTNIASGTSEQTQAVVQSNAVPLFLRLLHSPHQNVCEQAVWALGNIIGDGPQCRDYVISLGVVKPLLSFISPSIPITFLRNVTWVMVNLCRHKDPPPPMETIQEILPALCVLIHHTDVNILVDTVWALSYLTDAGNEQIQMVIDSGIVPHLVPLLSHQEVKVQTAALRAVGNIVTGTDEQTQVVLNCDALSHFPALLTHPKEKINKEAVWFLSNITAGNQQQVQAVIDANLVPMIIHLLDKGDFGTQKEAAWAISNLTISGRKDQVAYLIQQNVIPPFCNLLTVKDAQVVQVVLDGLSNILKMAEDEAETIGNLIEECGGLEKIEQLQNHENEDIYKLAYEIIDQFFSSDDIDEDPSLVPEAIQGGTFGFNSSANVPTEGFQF

[16] = biological target: T1, Human importin α3 isoform (residues …); test: BLI; His-tagged Impα3 or ∆Impα3 immobilised on His-tag biosensors at 0.25 μM; peptides 1 to 10 μM; BLItz system, manufacturer's 10x kinetics buffer; 25 °C; kon and koff from pseudo-first-order plots; apparent Kd = koff/kon, two-state process assumed; settings: both partners purified
[17] = biological target: T2, IBB-depleted species of Impα3 (residues 64–521 of the intact protein) (human, UniProt O00629 64-521); test: as above; settings: both partners purified
T2 construct: PDB 5XZX was used only as the model of ∆Impα3 for docking; its limits may differ from 64-521; also called ΔImpα3; truncated importin species
T2 sequence (looked up): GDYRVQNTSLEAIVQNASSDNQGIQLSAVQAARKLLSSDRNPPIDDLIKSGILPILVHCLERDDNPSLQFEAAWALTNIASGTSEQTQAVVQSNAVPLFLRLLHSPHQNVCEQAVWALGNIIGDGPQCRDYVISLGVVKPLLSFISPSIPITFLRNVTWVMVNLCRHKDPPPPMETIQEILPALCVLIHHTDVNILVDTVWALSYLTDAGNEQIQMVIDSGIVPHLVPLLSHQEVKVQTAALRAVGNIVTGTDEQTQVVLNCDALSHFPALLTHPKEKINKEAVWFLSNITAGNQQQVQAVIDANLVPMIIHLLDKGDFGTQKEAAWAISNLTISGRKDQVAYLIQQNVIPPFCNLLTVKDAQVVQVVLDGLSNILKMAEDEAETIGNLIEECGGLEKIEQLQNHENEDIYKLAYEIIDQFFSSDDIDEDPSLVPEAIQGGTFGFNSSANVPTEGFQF

[18] = biological target: T2, IBB-depleted species of Impα3 (residues …); test: ITC; importin species (15 µM in protomer units) in the cell, D-NLS peptide (150–200 µM) in the syringe; Tris buffer 50 mM, pH 8.0; 25 °C; single set of binding sites; settings: both partners purified
[19] = biological target: T1, Human importin α3 isoform (residues …); test: as above; settings: both partners purified; remark: listed apart in the source
[20] = biological target: T2, IBB-depleted species of Impα3 (residues …); test: as above; settings: both partners purified; remark: listed apart in the source
[21] = biological target: T1, Human importin α3 isoform (residues …); test: other fluorescence titration; intrinsic fluorescence, excitation at 280 or 295 nm; Impα3 or ∆Impα3 fixed at 3 μM (protomer units), peptide 0–35 μM; 50 mM Tris pH 8.0; 25 °C; settings: both partners purified
[22] = biological target: T2, IBB-depleted species of Impα3 (residues …); test: as above; settings: both partners purified

Sequence of L-NLS-PADI (NLS2-PADI4) (Homo sapiens) (Q9UM07 498-526): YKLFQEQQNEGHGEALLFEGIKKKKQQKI
Sequence of L-NLS-NUPR1 (Homo sapiens) (O60356 54-74): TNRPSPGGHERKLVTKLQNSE
Sequence of L-NLS-NUPR1L (Homo sapiens) (A6NF83 51-74): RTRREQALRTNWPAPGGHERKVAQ
Sequence of L-NLS-NUPR1L NLS (Homo sapiens) (A6NF83 60-80): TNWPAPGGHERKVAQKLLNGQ

Row | Molecule | Kd [1] | Kd [2] | Kd [3] | Kd [5] | Kd [8] | Kd [10] | Kd [16] | koff [16] | kon [16] | Kd [17] | koff [17] | kon [17] | other results
1 | importin α3 (Impα3) 1-521 (from UniProt O00629) | 27 µM | 1.7 µM | 23 µM | 4 µM |  |  |  |  |  |  |  |  | Kd [4]: 3 µM
2 | ∆Importin α3 IBB-deleted (from UniProt O00629) |  |  |  |  | 4.37 µM | 4 µM |  |  |  |  |  |  | Kd [6]: 29 µM; Kd [7]: 5.5 µM; Kd [9]: 0.95 µM
3 | ∆Impα3 64-521 (from UniProt O00629) | 29 µM | 0.95 µM | 4.37 µM | 4 µM |  |  |  |  |  |  |  |  | Kd [11]: 5.5 µM
4 | Importin α3 (from UniProt O00629) |  |  |  |  | 23 µM | 4 µM |  |  |  |  |  |  | Kd [12]: 1.7 µM; Kd [13]: 27 µM; Kd [14]: 3 µM
5 | Ac-[dR][dT][dR][dR][dE][dQ][dA][dL][dR][dT][dN][dW][dP][dA][dP]GG[dH][dE][dR][dK][dV][dA][dQ]-NH2 (SMILES CC(=O)N[C@H](CCCNC(=N)N)C(=O)N[C@@H](C(=O)N[C@H](CCCNC(=N)N)C(=O)N[C@H](CCCNC(=N)N)C(=O)N[C@H](CCC(=O)O)C(=O)N[C@H](CCC(N)=O)C(=O)N[C@H](C)C(=O)N[C@H](CC(C)C)C(=O)N[C@H](CCCNC(=N)N)C(=O)N[C@@H](C(=O)N[C@H](CC(N)=O)C(=O)N[C@H](Cc1c[nH]c2ccccc12)C(=O)N1CCC[C@@H]1C(=O)N[C@H](C)C(=O)N1CCC[C@@H]1C(=O)NCC(=O)NCC(=O)N[C@H](Cc1c[nH]cn1)C(=O)N[C@H](CCC(=O)O)C(=O)N[C@H](CCCNC(=N)N)C(=O)N[C@H](CCCCN)C(=O)N[C@@H](C(=O)N[C@H](C)C(=O)N[C@H](CCC(N)=O)C(N)=O)C(C)C)[C@H](C)O)[C@H](C)O, NLS region of NUPR1L (paralogue of NUPR1), residues 51-74 of the intact protein, made of D-amino acids; also called D-NLS-NUPR1L; source: synthetic peptide (Genscript, purity higher than 95%)) [D-enantiomeric, isolated NLS region of NUPR1L (residues 51–74 of the intact protein)] |  |  |  |  |  |  | 1 µM | 0.069 s⁻¹ | 68000 M⁻¹ s⁻¹ | 0.7 µM | 0.038 s⁻¹ | 51200 M⁻¹ s⁻¹ | Kd [15]: 2.7 ± 0.6 µM; dH [18]: -4.5 ± 0.7 kcal/mol; dH [19]: -2.5 ± 0.2 kcal/mol; Kd [20]: 5 ± 1 µM
6 | Ac-[dK][dL][dF][dQ][dE][dQ][dQ][dN][dE]G[dH]G[dE][dA][dL][dL][dF][dE]G[dI][dK][dK][dK][dK][dQ][dQ][dK][dI]-NH2 (SMILES CC[C@@H](C)[C@@H](NC(=O)[C@@H](CCCCN)NC(=O)[C@@H](CCC(N)=O)NC(=O)[C@@H](CCC(N)=O)NC(=O)[C@@H](CCCCN)NC(=O)[C@@H](CCCCN)NC(=O)[C@@H](CCCCN)NC(=O)[C@@H](CCCCN)NC(=O)[C@H](NC(=O)CNC(=O)[C@@H](CCC(=O)O)NC(=O)[C@@H](Cc1ccccc1)NC(=O)[C@@H](CC(C)C)NC(=O)[C@@H](CC(C)C)NC(=O)[C@@H](C)NC(=O)[C@@H](CCC(=O)O)NC(=O)CNC(=O)[C@@H](Cc1c[nH]cn1)NC(=O)CNC(=O)[C@@H](CCC(=O)O)NC(=O)[C@@H](CC(N)=O)NC(=O)[C@@H](CCC(N)=O)NC(=O)[C@@H](CCC(N)=O)NC(=O)[C@@H](CCC(=O)O)NC(=O)[C@@H](CCC(N)=O)NC(=O)[C@@H](Cc1ccccc1)NC(=O)[C@@H](CC(C)C)NC(=O)[C@@H](CCCCN)NC(C)=O)[C@H](C)CC)C(N)=O, second predicted (non-canonical) NLS region of PADI4 (protein arginine deiminase 4), residues 499-526 of the intact protein, made of D-amino acids; Mirror-image (all-D) peptide; also called D-NLS-PADI; D-form of NLS2-PADI4; source: synthetic peptide (Genscript, purity higher than 95%)) [D-enantiomeric, isolated, non-canonical NLS of PADI4] |  |  |  |  |  |  | 15 µM | 0.6 s⁻¹ | 45000 M⁻¹ s⁻¹ | 6 µM | 0.37 s⁻¹ | 60000 M⁻¹ s⁻¹ | Kd [21]: 12 ± 5 µM; Kd [22]: 16 ± 11 µM
